Data published in patent US20130315910A1 (Xencor, published 2013).

Experiments:
cynoFcγRIIIa = target: T1, cynoFcγRIIIa (Macaca fascicularis, UniProt Q8SPW2); assay: SPR
T1 construct: extracellular region, C-terminal His- and GST-tag; also called cynomolgus monkey FcγRIIIa

mFcγRIV = target: T2, mFcγRIV; assay: SPR
T2 construct: also called mouse FcγRIV; not shown: C-terminal His and GST tags (named only on our card)
T2 chain: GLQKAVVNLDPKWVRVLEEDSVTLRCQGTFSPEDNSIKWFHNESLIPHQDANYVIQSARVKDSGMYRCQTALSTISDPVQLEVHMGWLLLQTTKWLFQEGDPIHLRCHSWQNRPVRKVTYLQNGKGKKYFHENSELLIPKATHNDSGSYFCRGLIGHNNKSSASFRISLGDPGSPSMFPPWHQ

mFcγRIIb [1] = target: T3, mFcγRIIb (Mus musculus, UniProt P08101); assay: SPR
T3 construct: extracellular region, C-terminal His- and GST-tag; also called mouse FcγRII
T3 sequence (receptor extracellular region, looked up): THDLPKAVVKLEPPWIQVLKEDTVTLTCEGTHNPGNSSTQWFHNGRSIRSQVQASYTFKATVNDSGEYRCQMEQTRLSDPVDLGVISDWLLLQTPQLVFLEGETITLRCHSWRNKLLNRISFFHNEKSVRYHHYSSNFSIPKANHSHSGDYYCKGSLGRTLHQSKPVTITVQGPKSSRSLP

cynoFcγRIIb [2] = target: T4, cynoFcγRIIb (Macaca fascicularis, UniProt A0A140HDP4); assay: SPR
T4 construct: extracellular region, C-terminal His- and GST-tag; also called cynomolgus monkey FcγRIIb
T4 sequence (receptor extracellular region): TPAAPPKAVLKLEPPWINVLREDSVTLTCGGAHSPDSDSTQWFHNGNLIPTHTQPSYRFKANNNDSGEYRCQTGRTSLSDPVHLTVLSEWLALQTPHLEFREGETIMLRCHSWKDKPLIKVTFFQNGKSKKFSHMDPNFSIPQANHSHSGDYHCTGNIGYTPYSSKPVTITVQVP

[3] = target: T5, human FcγRI receptor protein (R&D Systems) (human, UniProt P12314 16-288); assay: SPR
T5 construct: also called soluble FcγRI; solFcγRI

[4] = target: T6, human FcγRIIb receptor protein (R&D Systems) (human, UniProt P31994 46-217); assay: SPR
T6 construct: Bought protein injected over captured antibody in Biacore; also called CD32b
T6 sequence (looked up): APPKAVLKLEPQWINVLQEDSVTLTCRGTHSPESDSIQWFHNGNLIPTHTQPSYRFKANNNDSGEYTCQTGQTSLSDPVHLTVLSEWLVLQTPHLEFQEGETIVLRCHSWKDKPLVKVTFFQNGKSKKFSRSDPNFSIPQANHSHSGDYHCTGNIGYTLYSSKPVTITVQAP

[5] = target: T7, human FcγRIIa (131H), His- and GST-tagged (human, UniProt P12318 34-217); assay: SPR
T7 construct: also called H131 FcγRIIa; HIIa; not shown: 6xHis and GST tags of the pTT5 vector
T7 sequence (looked up): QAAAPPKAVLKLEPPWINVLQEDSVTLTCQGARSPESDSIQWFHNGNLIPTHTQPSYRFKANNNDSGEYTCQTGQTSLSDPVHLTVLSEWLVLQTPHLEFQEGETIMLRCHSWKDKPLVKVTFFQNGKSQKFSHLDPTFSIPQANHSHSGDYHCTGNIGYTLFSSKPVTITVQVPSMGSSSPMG

[6] = target: T8, human FcγRIIIa (158V), His- and GST-tagged (human, UniProt P08637 17-208); assay: SPR
T8 construct: also called V158 FcγRIIIa; VIIIa; not shown: 6xHis and GST tags of the pTT5 vector

[7] = target: T9, human FcγRIIa (131R), His- and GST-tagged (human, UniProt P12318 34-217); assay: SPR
T9 construct: Expressed in HEK293T cells, purified by nickel chromatography; also called R131 FcγRIIa; not shown: 6xHis and GST tags of the pTT5 vector
T9 sequence (looked up): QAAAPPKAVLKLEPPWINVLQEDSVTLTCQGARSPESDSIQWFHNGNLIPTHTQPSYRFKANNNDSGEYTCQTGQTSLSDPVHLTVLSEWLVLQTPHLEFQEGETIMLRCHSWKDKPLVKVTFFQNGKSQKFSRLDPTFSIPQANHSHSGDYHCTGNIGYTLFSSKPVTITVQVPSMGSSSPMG

[8] = target: T10, human FcγRIIb on cells (transfected HEK293T cells; primary human B cells) (human, UniProt P31994 43-310); assay: flow cytometry on FcγRIIb-transfected 293T cells [middle left panel]
T10 construct: whole, on cells; also called CD32b
T10 sequence (looked up): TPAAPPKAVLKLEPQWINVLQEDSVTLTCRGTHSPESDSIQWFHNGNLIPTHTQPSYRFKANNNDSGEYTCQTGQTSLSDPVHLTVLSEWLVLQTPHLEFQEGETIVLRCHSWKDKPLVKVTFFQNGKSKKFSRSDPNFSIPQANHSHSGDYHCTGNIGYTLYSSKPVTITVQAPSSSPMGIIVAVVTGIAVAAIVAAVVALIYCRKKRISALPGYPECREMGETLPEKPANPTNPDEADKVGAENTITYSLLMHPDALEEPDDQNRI
Protocol: In order to validate the Biacore data and evaluate receptor binding of the variants on the cell surface, binding of select antibodies to cells expressing FcγRIIb was measured. […] HEK293T cells in DMEM with 10% FBS were transfected with human FcγRIIb cDNA in pCMV6 expression vector (Origene Technologies, Rockville, Md.), cultured for 3 days, harvested, washed twice in PBS, resuspended in PBS with 0.1% BSA (PBS/BSA), and aliquoted at 2×10^5 cells per well into 96-well microtiter plates. Fc variant antibodies were serially diluted in PBS/BSA then added to the cells and incubated with mixing for 1 h at room temperature. After extensive washing with PBS/BSA, phycoerythrin (PE)-labeled anti-human-Fab-specific goat F(ab′)2 fragment was added for detection. Cells were incubated for 30 min at room temperature, washed, and resuspended in PBS/BSA. Binding was evaluated using a FACSCanto II flow cytometer (BD Biosciences, San Jose, Calif.), and the mean fluorescence intensity (MFI) was plotted as a function of antibody concentration using Graph Pad Prism software (GraphPad Software, San Diego, Calif.) from which half-maximal binding (EC50) values were determined by sigmoidal dose response modeling.

mFcγRIIb [9] = target: T3, mFcγRIIb; assay: SPR, Kd
Protocol: (§1) Variants were screened for receptor affinity using Biacore™ technology, also referred to as Biacore herein, a surface plasmon resonance (SPR) based technology for studying biomolecular interactions in real time. SPR measurements were performed using a Biacore 3000 instrument (Biacore, Piscataway, N.J.). A protein A/G (Pierce Biotechnology) CM5 biosensor chip (Biacore) was generated using a standard primary amine coupling protocol. All measurements were performed using HBS-EP buffer (10 mM HEPES pH 7.4, 0.15 M NaCl, 3 mM EDTA, 0.005% vol/vol surfactant P20, Biacore). Antibodies at 20 nM or 50 nM in HBS-EP buffer were immobilized on the protein A/G surface and FcγRs were injected. After each cycle, the surface was regenerated by injecting glycine buffer (10 mM, pH 1.5). Data were processed by zeroing time and response before the injection of FcγR and by subtracting appropriate nonspecific signals (response of reference channel and injection of running buffer). Kinetic analyses were performed by global fitting of binding data with a 1:1 Langmuir binding model using BIAevaluation software (Biacore).
(§2) Variant antibodies were tested for their affinity to mouse or cynologous monkey FcγRs using Biacore SPR as described above. Specifically, antibodies were first immobilized on a protein A/G chip to high density, and then followed by injections of the extracellular domain of the mouse or cynologous monkey FcγR of interest. Both association and dissociation phases were tracked in real time using the Biacore technology.

cynoFcγRIIb [10] = target: T4, cynoFcγRIIb; assay: SPR, Kd
Protocol: as §1, §2
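Wherever Fold vs WT IgG1 (off-rate) is given: fold improvement over WT IgG1 so higher means slower dissociation than WT.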

T8 sequence (P08637 17-208 F176V): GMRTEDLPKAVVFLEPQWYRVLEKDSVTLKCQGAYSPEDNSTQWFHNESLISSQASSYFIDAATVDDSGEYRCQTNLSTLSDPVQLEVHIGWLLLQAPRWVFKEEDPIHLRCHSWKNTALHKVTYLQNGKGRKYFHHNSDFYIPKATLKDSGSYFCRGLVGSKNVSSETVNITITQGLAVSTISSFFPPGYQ
T5 sequence (P12314 16-288 limits assumed): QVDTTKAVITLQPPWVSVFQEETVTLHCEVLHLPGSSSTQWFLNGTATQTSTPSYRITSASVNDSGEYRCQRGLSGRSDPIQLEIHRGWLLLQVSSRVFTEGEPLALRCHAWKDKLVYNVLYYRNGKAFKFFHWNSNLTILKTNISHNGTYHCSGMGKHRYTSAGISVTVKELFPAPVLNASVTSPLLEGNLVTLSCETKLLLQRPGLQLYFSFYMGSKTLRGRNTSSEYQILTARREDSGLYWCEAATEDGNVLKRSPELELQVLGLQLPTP
T1 sequence (Q8SPW2 17-208): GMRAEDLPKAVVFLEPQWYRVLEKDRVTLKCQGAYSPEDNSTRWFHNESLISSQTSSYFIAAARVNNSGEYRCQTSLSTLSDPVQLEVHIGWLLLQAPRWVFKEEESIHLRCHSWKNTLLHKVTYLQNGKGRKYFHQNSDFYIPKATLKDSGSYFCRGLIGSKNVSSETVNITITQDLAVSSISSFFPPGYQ

B1: S267E/A327E (antibody, human IgG1, kappa)
heavy: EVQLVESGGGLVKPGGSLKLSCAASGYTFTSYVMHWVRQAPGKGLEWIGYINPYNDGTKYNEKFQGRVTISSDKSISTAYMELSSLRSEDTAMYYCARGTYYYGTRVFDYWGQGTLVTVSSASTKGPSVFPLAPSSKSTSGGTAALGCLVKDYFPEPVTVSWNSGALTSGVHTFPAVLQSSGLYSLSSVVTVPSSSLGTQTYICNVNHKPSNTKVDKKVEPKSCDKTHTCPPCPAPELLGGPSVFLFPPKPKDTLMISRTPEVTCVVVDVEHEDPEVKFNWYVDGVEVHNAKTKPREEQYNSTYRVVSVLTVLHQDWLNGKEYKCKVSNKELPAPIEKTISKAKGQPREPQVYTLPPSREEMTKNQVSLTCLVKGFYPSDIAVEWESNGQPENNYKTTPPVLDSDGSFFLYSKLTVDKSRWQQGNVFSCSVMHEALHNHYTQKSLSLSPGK
light: DIVMTQSPATLSLSPGERATLSCRSSKSLQNVNGNTYLYWFQQKPGQSPQLLIYRMSNLNSGVPDRFSGSGSGTEFTLTISSLEPEDFAVYYCMQHLEYPITFGAGTKLEIKRTVAAPSVFIFPPSDEQLKSGTASVVCLLNNFYPREAKVQWKVDNALQSGNSQESVTEQDSKDSTYSLSSTLTLSKADYEKHKVYACEVTHQGLSSPVTKSFNRGEC
notes: HuAM4G7 anti-CD19 IgG1 (m1) with these Fc substitutions, EU index; copies: 2 + 2
With B1 the “Fold vs WT IgG1 (off-rate)” value (cynoFcγRIIIa) was 0.465 fold, the “Fold vs WT IgG1 (off-rate)” value (mFcγRIV) was 1.04 fold and the “Fold vs WT IgG1 (off-rate)” value (mFcγRIIb [1]) was 2.8 fold. The “Fold vs WT IgG1 (off-rate)” value (cynoFcγRIIb [2]) was 1.03 fold, the “Fold vs WT IgG1” value [3] was 2.3 fold and the Kd [3] was 0.143 nM. For the same binder, the “Fold vs WT IgG1” value [4] was 30.9 fold, the Kd [4] was 47.5 nM and the “Fold vs WT IgG1” value [5] was 2.66 fold. The Kd [5] was 243 nM, the “Fold vs WT IgG1” value [6] was 0.00894 fold and the Kd [6] was 21400 nM. The “Fold vs WT IgG1” value [7] was 29.3 fold, the Kd [7] was 29.3 nM and the “EC50 (read off the curve)” value [8] was ~10 ng/mL.

B2: V266M/S267E (antibody, human IgG1, kappa)
heavy: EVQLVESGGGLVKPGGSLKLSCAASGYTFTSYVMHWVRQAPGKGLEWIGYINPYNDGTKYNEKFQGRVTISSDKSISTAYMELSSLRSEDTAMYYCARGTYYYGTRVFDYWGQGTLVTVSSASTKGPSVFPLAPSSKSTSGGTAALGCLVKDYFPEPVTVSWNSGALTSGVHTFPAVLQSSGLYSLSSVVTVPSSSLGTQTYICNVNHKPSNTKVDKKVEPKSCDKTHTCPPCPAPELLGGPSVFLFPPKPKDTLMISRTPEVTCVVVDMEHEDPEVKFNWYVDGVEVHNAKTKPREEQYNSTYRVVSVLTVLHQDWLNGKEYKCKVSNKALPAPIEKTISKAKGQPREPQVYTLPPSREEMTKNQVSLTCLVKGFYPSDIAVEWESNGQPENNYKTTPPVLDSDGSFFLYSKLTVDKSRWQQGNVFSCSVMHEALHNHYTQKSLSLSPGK
light: DIVMTQSPATLSLSPGERATLSCRSSKSLQNVNGNTYLYWFQQKPGQSPQLLIYRMSNLNSGVPDRFSGSGSGTEFTLTISSLEPEDFAVYYCMQHLEYPITFGAGTKLEIKRTVAAPSVFIFPPSDEQLKSGTASVVCLLNNFYPREAKVQWKVDNALQSGNSQESVTEQDSKDSTYSLSSTLTLSKADYEKHKVYACEVTHQGLSSPVTKSFNRGEC
notes: as for B1
For B2, the “Fold vs WT IgG1” value [3] was 1.98 fold, the Kd [3] was 0.166 nM and the “Fold vs WT IgG1” value [4] was 29.2 fold. The Kd [4] was 50.2 nM, the “Fold vs WT IgG1” value [5] was 10.9 fold and the Kd [5] was 59.2 nM. For the same binder, the “Fold vs WT IgG1” value [6] was 0.0448 fold, the Kd [6] was 4270 nM and the “Fold vs WT IgG1” value [7] was 30.7 fold. For the same binder, the Kd [7] was 28 nM and the “EC50 (read off the curve)” value [8] was ~10 ng/mL.

B3: anti-CD19 antibody HuAM4G7 IgG1 S267E/H268E (antibody)
heavy: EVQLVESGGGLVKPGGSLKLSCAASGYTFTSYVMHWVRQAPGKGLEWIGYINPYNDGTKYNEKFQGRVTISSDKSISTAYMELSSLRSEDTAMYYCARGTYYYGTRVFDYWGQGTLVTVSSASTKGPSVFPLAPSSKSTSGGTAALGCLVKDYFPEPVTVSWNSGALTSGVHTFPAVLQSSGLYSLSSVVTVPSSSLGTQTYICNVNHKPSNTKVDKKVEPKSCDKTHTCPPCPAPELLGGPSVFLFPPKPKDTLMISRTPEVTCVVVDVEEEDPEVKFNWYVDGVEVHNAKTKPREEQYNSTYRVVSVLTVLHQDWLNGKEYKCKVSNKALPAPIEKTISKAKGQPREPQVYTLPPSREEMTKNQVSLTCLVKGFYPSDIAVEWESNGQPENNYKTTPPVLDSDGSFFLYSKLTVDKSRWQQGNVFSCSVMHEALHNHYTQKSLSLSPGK
light: DIVMTQSPATLSLSPGERATLSCRSSKSLQNVNGNTYLYWFQQKPGQSPQLLIYRMSNLNSGVPDRFSGSGSGTEFTLTISSLEPEDFAVYYCMQHLEYPITFGAGTKLEIKRTVAAPSVFIFPPSDEQLKSGTASVVCLLNNFYPREAKVQWKVDNALQSGNSQESVTEQDSKDSTYSLSSTLTLSKADYEKHKVYACEVTHQGLSSPVTKSFNRGEC
notes: Positions in EU numbering; copies: 2 + 2
B3 was tested, and the “Fold vs WT IgG1” value [3] was 3.52 fold, the Kd [3] was 0.0935 nM and the “Fold vs WT IgG1” value [4] was 40.6 fold. The Kd [4] was 36.1 nM, the “Fold vs WT IgG1” value [5] was 0.765 fold and the Kd [5] was 845 nM. For the same binder, the “Fold vs WT IgG1” value [6] was 3.15 fold, the Kd [6] was 60.8 nM and the “Fold vs WT IgG1” value [7] was 41.7 fold. The Kd [7] was 20.6 nM and the “EC50 (read off the curve)” value [8] was ~10 ng/mL.

B4: A327L (antibody, human IgG1, kappa)
heavy: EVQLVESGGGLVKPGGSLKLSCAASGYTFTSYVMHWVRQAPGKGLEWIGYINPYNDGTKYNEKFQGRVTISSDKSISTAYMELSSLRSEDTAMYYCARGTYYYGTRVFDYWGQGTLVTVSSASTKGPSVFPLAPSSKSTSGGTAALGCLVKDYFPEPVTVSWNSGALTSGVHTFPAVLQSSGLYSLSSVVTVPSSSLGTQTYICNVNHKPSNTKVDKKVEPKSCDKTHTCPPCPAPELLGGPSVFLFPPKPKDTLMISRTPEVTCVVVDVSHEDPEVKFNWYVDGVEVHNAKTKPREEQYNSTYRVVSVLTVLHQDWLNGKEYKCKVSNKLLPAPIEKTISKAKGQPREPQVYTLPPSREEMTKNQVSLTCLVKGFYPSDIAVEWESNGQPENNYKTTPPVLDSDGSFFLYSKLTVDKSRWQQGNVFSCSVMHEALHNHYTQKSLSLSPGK
light: DIVMTQSPATLSLSPGERATLSCRSSKSLQNVNGNTYLYWFQQKPGQSPQLLIYRMSNLNSGVPDRFSGSGSGTEFTLTISSLEPEDFAVYYCMQHLEYPITFGAGTKLEIKRTVAAPSVFIFPPSDEQLKSGTASVVCLLNNFYPREAKVQWKVDNALQSGNSQESVTEQDSKDSTYSLSSTLTLSKADYEKHKVYACEVTHQGLSSPVTKSFNRGEC
notes: HuAM4G7 anti-CD19 IgG1 (m1) with this Fc substitution, EU index; copies: 2 + 2
B4: no binding (mFcγRIIb [9]); no binding (cynoFcγRIIb [10]); no binding [4].

B5: G236A/G237A (antibody, human IgG1, kappa)
heavy: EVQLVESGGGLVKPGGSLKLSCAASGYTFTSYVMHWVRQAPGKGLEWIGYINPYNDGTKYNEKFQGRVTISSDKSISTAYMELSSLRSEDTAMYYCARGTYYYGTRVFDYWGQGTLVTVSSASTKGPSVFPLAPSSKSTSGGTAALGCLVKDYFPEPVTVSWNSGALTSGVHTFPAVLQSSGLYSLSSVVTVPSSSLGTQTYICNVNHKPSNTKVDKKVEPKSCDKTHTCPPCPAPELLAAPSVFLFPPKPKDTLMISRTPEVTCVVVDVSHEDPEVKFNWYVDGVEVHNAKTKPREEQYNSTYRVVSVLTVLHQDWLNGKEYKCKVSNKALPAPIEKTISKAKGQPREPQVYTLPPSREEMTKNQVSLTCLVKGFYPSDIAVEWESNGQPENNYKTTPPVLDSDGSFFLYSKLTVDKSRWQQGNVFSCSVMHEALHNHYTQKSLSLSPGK
light: DIVMTQSPATLSLSPGERATLSCRSSKSLQNVNGNTYLYWFQQKPGQSPQLLIYRMSNLNSGVPDRFSGSGSGTEFTLTISSLEPEDFAVYYCMQHLEYPITFGAGTKLEIKRTVAAPSVFIFPPSDEQLKSGTASVVCLLNNFYPREAKVQWKVDNALQSGNSQESVTEQDSKDSTYSLSSTLTLSKADYEKHKVYACEVTHQGLSSPVTKSFNRGEC
notes: as for B1
With B5 the binding result (mFcγRIIb [9]) was “no binding”, the binding result (cynoFcγRIIb [10]) was “no binding” and the “Fold vs WT IgG1” value [4] was 0.0578 fold. For the same binder, the Kd [4] was 25400 nM.

B6: G236S/G237A (antibody, human IgG1, kappa)
heavy: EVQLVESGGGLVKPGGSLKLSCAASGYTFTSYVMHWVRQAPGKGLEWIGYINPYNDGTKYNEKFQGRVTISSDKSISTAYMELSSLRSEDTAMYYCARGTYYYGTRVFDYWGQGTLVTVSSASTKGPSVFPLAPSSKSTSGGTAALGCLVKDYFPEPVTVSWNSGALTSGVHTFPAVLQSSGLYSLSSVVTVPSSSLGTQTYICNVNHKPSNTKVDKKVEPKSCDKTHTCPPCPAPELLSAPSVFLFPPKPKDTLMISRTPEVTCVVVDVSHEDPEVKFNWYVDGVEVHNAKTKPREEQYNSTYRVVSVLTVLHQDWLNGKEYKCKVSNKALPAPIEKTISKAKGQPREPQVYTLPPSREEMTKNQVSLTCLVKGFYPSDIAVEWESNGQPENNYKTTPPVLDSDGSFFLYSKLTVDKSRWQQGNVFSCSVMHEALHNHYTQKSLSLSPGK
light: DIVMTQSPATLSLSPGERATLSCRSSKSLQNVNGNTYLYWFQQKPGQSPQLLIYRMSNLNSGVPDRFSGSGSGTEFTLTISSLEPEDFAVYYCMQHLEYPITFGAGTKLEIKRTVAAPSVFIFPPSDEQLKSGTASVVCLLNNFYPREAKVQWKVDNALQSGNSQESVTEQDSKDSTYSLSSTLTLSKADYEKHKVYACEVTHQGLSSPVTKSFNRGEC
notes: as for B1
For B6, the binding result (mFcγRIIb [9]) was “no binding”, the binding result (cynoFcγRIIb [10]) was “no binding” and the “Fold vs WT IgG1” value [4] was 0.0797 fold. The Kd [4] was 18400 nM.
